From doi:10.1101/2020.01.22.915298 (bioRxiv, 2020)

B1: Heparin-Binding EGF-like Growth Factor, recombinant (receptor, UniProt Q99075 63-148, looked up)
chain: DLQEADLDLLRVTLSSKPQALATPNKEEHGKRKKKGKGLGKKRDPCLRKYKDFCIHGECKYVKELRAPSCICHPGYHGERCHGLSL

Assays:
[1] = target: Heparin-Binding EGF-like Growth Factor, recombinant (UniProt Q99075); test: SPR
[2] = target: diphtheria toxin receptor-binding fragment (lysosomal targeting moiety) (Corynebacterium diphtheriae, UniProt P00588 418-567); test: SPR
Sequence of diphtheria toxin receptor-binding fragment (lysosomal targeting moiety) (P00588 418-567): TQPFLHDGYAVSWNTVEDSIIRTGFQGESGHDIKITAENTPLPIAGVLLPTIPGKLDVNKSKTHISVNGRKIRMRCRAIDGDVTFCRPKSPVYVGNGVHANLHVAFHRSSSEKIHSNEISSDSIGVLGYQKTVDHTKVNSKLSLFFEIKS

Molecule | Kd [1] [µM] | Kd [2] [µM]
LTM-TPP1 (TPP1 with an N-terminal LTM fusion) | 0.0191 | –
B1 | – | 0.0133
